Experiment [1] deals with T1, human insulin receptor (HIR) (human, UniProt P06213-2 28-1370, limits assumed).
T1 construct: detergent-solubilised receptor
Nature of the experiment: 125I-insulin competition on purified HIR.

The target in experiment [2] is T2, human insulin receptor (HIR) (human, UniProt P06213-2 28-1370, limits assumed).
T2 construct: Also used for the WGA-purified recombinant human insulin receptor of the kinase assay
In words: 125I-insulin competition on purified HIR.

For another experiment, the target named is Insulin Receptor (IR) (UniProt P06213 28-956, limits assumed). Nature of the experiment: BIAcore competition: IR pre-incubated with about 40 µM peptide, residual binding to immobilised insulin. The method, then: Flowcell-1 was used for background binding to correct for any non-specific binding. […] The surface was regenerated with 25 mM NaOH.
Background: SPR reads the build-up and loss of mass on a sensor chip optically.

Experiment [3] concerns the target T3, Soluble IGF-1R (R&D Systems, Cat. # 391-GR/CF) (human, UniProt P08069 31-935).
T3 construct: extracellular domain; the precursor is cleaved into alpha and beta subunits; also called sIGF-1R
In words: phage ELISA; IGF-1R ratio divided by IR ratio.

Experiment [4] addresses T4, Insulin receptor prepared according to Bass et al., 1996 (soluble IR-immunoglobulin chimera) (human, UniProt P06213 28-956).
T4 construct: extracellular domain; also called sIR-Fc; soluble IR (Bass construct); not shown: immunoglobulin constant domains replacing the transmembrane and intracellular domains
In words: phage ELISA, receptor coated on plate; A405 over non-fat milk. On the technique in general: An ELISA detects its analyte on a solid surface through an enzyme-linked reagent.

Experiment [5] deals with T3, Soluble IGF-1R (R&D Systems, Cat. # …). The description is as above.
Experiment [6] deals with T5, human insulin receptor (HIR), purified from transfected cells after solubilization with Triton X-100 (human, UniProt P06213-2 28-1370, limits assumed).
T5 construct: mature
In words: competition with 125I-insulin on solubilized HIR, PEG precipitation.

Experiment [7] addresses T6, soluble human insulin receptor-immunoglobulin heavy chain chimera (sIR-Fc) (human, UniProt P06213 28-956, limits assumed, Eu3+ (LANCE) labelled in the TR-FRET assays).
T6 construct: extracellular domain; also called HIR-immunoglobulin heavy chain chimera; not shown: immunoglobulin heavy chain constant domains
In words: FP competition, label FITC-RP9, sIR-Fc.

Experiment [8] deals with T2, human insulin receptor (HIR). In words: radio-receptor assay, label 125I-insulin, HIR.
Experiment [9] deals with T7, soluble HIR ectodomain (sIR) (human, UniProt P06213-2 28-944, limits assumed).
T7 construct: extracellular domain
In words: FP competition, label FITC-RP9, sIR.

Experiment [10] has as its target T6, soluble human insulin …. Nature of the experiment: TR-FRET competition, label b-S175, Eu-sIR-Fc. Background: Time-resolved FRET reads energy transfer from a long-lived donor to a nearby acceptor.
Experiment [11] deals with T6, soluble human insulin …. In words: TR-FRET competition, label b-RP9, Eu-sIR-Fc.

Positions of bridges follow the written chain, without caps; N, C: chain ends. Chains are numbered I, II in the order given. No end group written: not given here.

For orientation: Kd means the concentration at which binding is half-saturated. Low values mean higher affinity, high ones lower affinity. As usually defined, the IC50 is the concentration that gives 50% inhibition. Read a low IC50 as greater potency in that assay.

For TFYSCLASLLTGTPQPNRGPWERCRKK [S327], the affinity in [1], expressed as Kd, was 21 nM.

In the case of GSLDESFYDWFERQL [S395], in experiment [1], the Kd was found to be 81 nM.

B1: S443 (peptide)
peptide 1: ESFYDWFERQLGGGGK
peptide 2: WVQCEVYGRGCPS
modifications: not fully specified (bridges); cysteine pairing not given here; also: C-terminus of chain 2 linked to Lys16 of chain 1, bond at chain A 16 to a chain's C-terminus
Take B1: the Kd in experiment [2] is 170 nM.

Consider DRAFYNGLRDLVGAVYGAWD [20C11], for which, in the experiment with Insulin Receptor (IR), the “% Binding” value was 38% and the “Result (RUs)” value is 49 RU.

B2: B6L-3-G5-IR (peptide)
peptide: AETSAQVGWQRLWSVWPGDHWSTLDPFYHKLSELLRESGA
notes: library tags and phage coat protein not included
Consider B2, for which, in experiment [3], the IGF-1R/IR ratio comparison came to 1.4 ratio. Further, the “ratio over background (IR)” value in experiment [4] stood at 1.4 fold over background. Also, the “ratio over background (IGF-1R)” value in [5] is 2 fold over background.

Consider KWLDQEWAWVQCEVYGRGCPSKK [D8 (synthetic peptide)], for which, in the experiment with Insulin Receptor (IR), the “% Binding” value was found to be 33% and the “Result (RUs)” value is 41.6 RU.

B3: S441 (peptide)
peptide 1: ESFYDWFERQLGGGGK
peptide 2: WAWVQCEVYGRGCPS
modifications: not fully specified (bridges); cysteine pairing not given here; also: C-terminus of chain 2 linked to Lys16 of chain 1, bond at chain A 16 to a chain's C-terminus
On to B3, for which binding in experiment [2] was characterised by a dissociation constant (Kd) of 120 nM.

B4: S437 (peptide)
peptide 1: ESFYDWFERQLGGGGK
peptide 2: LDQEWAWVQCEVYGRGCPS
modifications: not fully specified (bridges); cysteine pairing not given here; also: C-terminus of chain 2 linked to Lys16 of chain 1, bond at chain A 16 to a chain's C-terminus
Take B4: the dissociation constant Kd in experiment [2] amounted to 0.69 nM.

B5: S442 (peptide)
peptide 1: ESFYDWFERQLGGGGK
peptide 2: AWVQCEVYGRGCPS
modifications: disulfide II:5-II:12 (inferred); also: bond at chain A 16 to a chain's C-terminus
In experiment [2], B5 showed a Kd of 160 nM.

Take GIISQSCPESFYDWFAGQVSDPWWCW (also called G33) [S326]: the equilibrium dissociation constant (Kd) in experiment [1] came to 590 nM.

B6: S432 (peptide)
peptide 1: ESFYDWFERQLGGGGK
peptide 2: CEVYGRGCPS
modifications: not fully specified (bridges); cysteine pairing not given here; also: C-terminus of chain 2 linked to Lys16 of chain 1, bond at chain A 16 to a chain's C-terminus
In turn, B6 registered a Kd in [2] of 180 nM.

As to LCQSWGVRIGWLTGLCP [2A9], in the experiment with Insulin Receptor (IR), the “% Binding” value amounted to 100% and the “Result (RUs)” value was found to be 128 RU.

B7: S433 (peptide)
peptide 1: ESFYDWFERQLGGGGK
peptide 2: WLDQEWAWVQ
modifications: also: C-terminus of chain 2 linked to Lys16 of chain 1, bond at chain A 16 to a chain's C-terminus
Regarding B7, in experiment [2], the Kd turned out to be 110 nM.

B8: S439 (peptide)
peptide 1: ESFYDWFERQLGGGGK
peptide 2: QEWAWVQCEVYGRGCPS
modifications: not fully specified (bridges); cysteine pairing not given here; also: C-terminus of chain 2 linked to Lys16 of chain 1, bond at chain A 16 to a chain's C-terminus
B8 came in with a Kd in experiment [2] of 46 nM.

As to LDQEWAVQCEVYGRGCPSESFYDWFERQLG [S484], in [2], the dissociation constant Kd is 87 nM.

B9: S415 (peptide)
peptide: ESFYDWFERQLGKX
chain: ESFYDWFERQLGKX
modifications: not fully specified; C-terminus joined to chemical linker 23 of Table 3; C-C linked dimer
notes: Synthetic truncated RP9 homodimer
The molecule B9 showed an equilibrium dissociation constant (Kd) in [6] of 100 nM.

B10: S438 (peptide)
peptide 1: ESFYDWFERQLGGGGK
peptide 2: DQEWAWVQCEVYGRGCPS
modifications: not fully specified (bridges); cysteine pairing not given here; also: C-terminus of chain 2 linked to Lys16 of chain 1, bond at chain A 16 to a chain's C-terminus
Consider B10, for which the Kd in [2] is 30 nM.

B11: S444 (peptide)
peptide 1: ESFYDWFERQLGGGGK
peptide 2: VQCEVYGRGCPS
modifications: not fully specified (bridges); cysteine pairing not given here; also: C-C branched: chain 2 C-terminus bonded to Lys16 side chain
B11 displayed a Kd in experiment [2] of 190 nM.

B12: S440 (peptide)
peptide 1: ESFYDWFERQLGGGGK
peptide 2: EWAWVQCEVYGRGCPS
modifications: not fully specified (bridges); cysteine pairing not given here; also: C-terminus of chain 2 linked to Lys16 of chain 1, bond at chain A 16 to a chain's C-terminus
In experiment [2], B12 yielded a dissociation constant (Kd) of 99 nM.

On to GSLDESFYDWFERQLGKK (also called S371) [RP9], for which the IC50 in experiment [7] stood at 10 nM; in [8], 44 nM; in [9] it was 0.03 nM; in [10], 6 nM; in experiment [11] it was 42 nM.

On to VTFTSAVFHENFYDWFVRQVS [H2], for which, in the experiment with Insulin Receptor (IR), the “% Binding” value turned out to be 27% and the “Result (RUs)” value is 34.6 RU.
